# According to patent US20250026792A1, “SELF-ASSEMBLING PEPTIDES WITH HYALURONIC ACID BINDING DOMAINS AND METHODS OF USE THEREOF” (Northwestern University, priority 2022, published 2025):
# Entries after “also recorded” stand apart in the source; their conditions may differ. The star is where a group is joined. Biotin = O=C1N[C@H]2[C@H](CS[C@H]2CCCCC(=O)*)N1
# B1: Peptide 7c (peptide)
# peptide: Biotin-KTKATVKIKNKQKSVNALKQKIVLLSK-OH
# SMILES: CC[C@H](C)[C@H](NC(=O)[C@H](CCCCN)NC(=O)[C@@H](NC(=O)[C@@H](NC(=O)[C@H](C)NC(=O)[C@H](CCCCN)NC(=O)[C@@H](NC(=O)[C@H](CCCCN)NC(=O)CCCC[C@@H]1SC[C@@H]2NC(=O)N[C@@H]21)[C@@H](C)O)[C@@H](C)O)C(C)C)C(=O)N[C@@H](CCCCN)C(=O)N[C@@H](CC(N)=O)C(=O)N[C@@H](CCCCN)C(=O)N[C@@H](CCC(N)=O)C(=O)N[C@@H](CCCCN)C(=O)N[C@@H](CO)C(=O)N[C@H](C(=O)N[C@@H](CC(N)=O)C(=O)N[C@@H](C)C(=O)N[C@@H](CC(C)C)C(=O)N[C@@H](CCCCN)C(=O)N[C@@H](CCC(N)=O)C(=O)N[C@@H](CCCCN)C(=O)N[C@H](C(=O)N[C@H](C(=O)N[C@@H](CC(C)C)C(=O)N[C@@H](CC(C)C)C(=O)N[C@@H](CO)C(=O)N[C@@H](CCCCN)C(=O)O)C(C)C)[C@@H](C)CC)C(C)C
# notes: Variant of 17x-3; biotinylated synthetic peptide
# B2: Peptide 4 (peptide)
# peptide: Biotin-LKTKIKIIVKTKSSAKLRSKLVNSHKI-OH
# SMILES: CC[C@H](C)[C@H](NC(=O)[C@H](CCCCN)NC(=O)[C@H](Cc1c[nH]cn1)NC(=O)[C@H](CO)NC(=O)[C@H](CC(N)=O)NC(=O)[C@@H](NC(=O)[C@H](CC(C)C)NC(=O)[C@H](CCCCN)NC(=O)[C@H](CO)NC(=O)[C@H](CCCNC(=N)N)NC(=O)[C@H](CC(C)C)NC(=O)[C@H](CCCCN)NC(=O)[C@H](C)NC(=O)[C@H](CO)NC(=O)[C@H](CO)NC(=O)[C@H](CCCCN)NC(=O)[C@@H](NC(=O)[C@H](CCCCN)NC(=O)[C@@H](NC(=O)[C@@H](NC(=O)[C@@H](NC(=O)[C@H](CCCCN)NC(=O)[C@@H](NC(=O)[C@H](CCCCN)NC(=O)[C@@H](NC(=O)[C@H](CCCCN)NC(=O)[C@H](CC(C)C)NC(=O)CCCC[C@@H]1SC[C@@H]2NC(=O)N[C@@H]21)[C@@H](C)O)[C@@H](C)CC)[C@@H](C)CC)[C@@H](C)CC)C(C)C)[C@@H](C)O)C(C)C)C(=O)O
# notes: Variant of peptide 8h-2; biotinylated synthetic peptide
# B3: Peptide BHP4 (peptide)
# peptide: Biotin-TNLRNKYTFLARARANLAVRNKQNIKS-OH
# SMILES: CC[C@H](C)[C@H](NC(=O)[C@H](CC(N)=O)NC(=O)[C@H](CCC(N)=O)NC(=O)[C@H](CCCCN)NC(=O)[C@H](CC(N)=O)NC(=O)[C@H](CCCNC(=N)N)NC(=O)[C@@H](NC(=O)[C@H](C)NC(=O)[C@H](CC(C)C)NC(=O)[C@H](CC(N)=O)NC(=O)[C@H](C)NC(=O)[C@H](CCCNC(=N)N)NC(=O)[C@H](C)NC(=O)[C@H](CCCNC(=N)N)NC(=O)[C@H](C)NC(=O)[C@H](CC(C)C)NC(=O)[C@H](Cc1ccccc1)NC(=O)[C@@H](NC(=O)[C@H](Cc1ccc(O)cc1)NC(=O)[C@H](CCCCN)NC(=O)[C@H](CC(N)=O)NC(=O)[C@H](CCCNC(=N)N)NC(=O)[C@H](CC(C)C)NC(=O)[C@H](CC(N)=O)NC(=O)[C@@H](NC(=O)CCCC[C@@H]1SC[C@@H]2NC(=O)N[C@@H]21)[C@@H](C)O)[C@@H](C)O)C(C)C)C(=O)N[C@@H](CCCCN)C(=O)N[C@@H](CO)C(=O)O
# notes: Variant of BHP3; biotinylated synthetic peptide; also called BPH4
# Experiments:
# [1] = system: extracellular matrix (ECM) components: Collagen type I, II, III and IV, elastin, hyaluronic acid and Geltrex; assay: ECM specificity binding test, whole panel; details: 5.0 mg/ml peptide, FIG. 4
# Description: (§1) Peptides were incubated 24 hours at 37° C. on collagens I-IV, elastin, hyaluronic acid, and Geltrex. Coatings (10 pig/cm^2) were previously dried overnight in milli-Q water. Overall significance was assessed using analysis of variance, with Tukey's multiple comparison post-hoc analysis between ECM groups where n=4.
# (§2) Hyaluronic acid, collagens I, II, III, and IV, elastin, and Geltrex were coated onto 96-well black plates (medium binding affinity) at 10 μg/cm^2 and were dried in milli-Q water at room temperature. N-termini biotinylated peptides were added to coated plates at 0, 1, 2.5, 5 and 10 mg/ml overnight at 37° C. in phosphate buffered saline (PBS), pH 7.4, after which the plates were washed three times with PBS. Fluorescent streptavidin-488 (4 μg/mL) was added to each well and incubated at 37° C. temperature for 24 hours, then thoroughly washed with PBS. The plates were read with a fluorescence microplate reader for fluorescence intensity (Ex 490 nm, Em 525 nm). All data were normalized to the background fluorescence intensity of Streptavidin-488.
# [2] = Circular dichroism (CD) of peptides; assay type: physicochemical; details: 20 mM Sodium Cacodylate; for Ellipticity ratio (222 nm/208 nm) / Ellipticity 208 nm / Ellipticity 222 nm: 1.25 mg/mL; for Ellipticity 208 nm / Ellipticity 222 nm: CD data given as [θ]M×10^−3; for wavelength Minimum of CD profile: 5.0 mg/mL
# Description: Data is presented in ellipticity ([θ]M×10^−3) as a function of spectral wavelength (λ).
# Sodium cacodylate (SC), 20 mM pH 7.4, without and with 20% TFE was used to reduce phosphate related background signal and enhance detected structures. Circular dichroism (CD) data were collected in millidegrees, 0, and converted to molar ellipticity, [θ]M, and are expressed in units of deg×cm^2×dmol^−1. Scan speeds and digital integration times were 500 nm/min and 1 second, respectively. The data on the Y axis of the CD plots is [θ]M×10^−3. […] Consequently, CD signals are reported in the 190-260 nm range.
# [3] = Concentration-dependent peptide binding to hyaluronic acid coating (biotin-streptavidin fluorescence)
# Description: Peptides were incubated 24 hours at 37° C. Coatings (10 μg/cm^2) were previously dried overnight in milli-Q water. Overall significance was assessed using analysis of variance, with Tukey's multiple comparison post-hoc analysis between 1-scrm and experimental groups where n=4.
# N-termini biotinylated peptides were added to coated plates at 0, 1, 2.5, 5 and 10 mg/ml overnight at 37° C. in phosphate buffered saline (PBS), pH 7.4, after which the plates were washed three times with PBS.
# [4] = Transmission electron microscopy (TEM) of peptide nanostructures; assay type: physicochemical
# Description: The sample and stain were filter-dried in between steps. Samples were collected 24 hours at 37° C. after 30 minutes of sonication. All TEM was performed on a Philips FEI Technai Spirit G2 electron microscope. Peptides were incubated in both PBS and SC.
# [5] = ECM specificity binding test, hyaluronic acid coating; details: 5.0 mg/ml peptide, FIG. 4
# Description: as §1, §2
# elastin = biological target: T1, elastin (Bos taurus, UniProt P04985); assay: ECM specificity binding test, elastin coating; set-up: species or system bovine; details: 5.0 mg/ml peptide, FIG. 4
# T1 construct: purchased Sigma-Aldrich
# T1 sequence (P04985 27-747): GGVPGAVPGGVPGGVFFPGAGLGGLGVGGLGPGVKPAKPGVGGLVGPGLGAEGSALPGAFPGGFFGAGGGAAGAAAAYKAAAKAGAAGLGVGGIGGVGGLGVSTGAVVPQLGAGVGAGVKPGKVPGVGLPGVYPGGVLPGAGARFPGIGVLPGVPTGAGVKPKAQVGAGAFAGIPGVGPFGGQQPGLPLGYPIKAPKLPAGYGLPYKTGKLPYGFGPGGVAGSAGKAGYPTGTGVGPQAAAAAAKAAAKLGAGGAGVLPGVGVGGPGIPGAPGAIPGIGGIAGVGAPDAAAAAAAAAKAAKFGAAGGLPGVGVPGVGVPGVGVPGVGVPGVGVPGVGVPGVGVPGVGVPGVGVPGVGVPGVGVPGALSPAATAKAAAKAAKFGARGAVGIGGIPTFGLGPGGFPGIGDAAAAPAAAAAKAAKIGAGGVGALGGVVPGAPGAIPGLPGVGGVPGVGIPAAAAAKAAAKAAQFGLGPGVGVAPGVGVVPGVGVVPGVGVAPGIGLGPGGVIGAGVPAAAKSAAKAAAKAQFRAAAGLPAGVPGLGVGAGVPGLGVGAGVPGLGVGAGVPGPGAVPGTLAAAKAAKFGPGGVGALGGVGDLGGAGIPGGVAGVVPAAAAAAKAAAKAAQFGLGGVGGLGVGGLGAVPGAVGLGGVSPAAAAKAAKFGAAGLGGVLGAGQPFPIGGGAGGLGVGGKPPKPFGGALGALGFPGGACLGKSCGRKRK
# Description: as §1
# Biotinylated peptides were custom synthesized by ABI Scientific, Inc. (Sterling, VA). Uranyl acetate and TEM grids were from Ted Pella, Inc (Redding, CA). Unless specified otherwise, all water used in these experiments was Milli-Q grade. HA (˜1 MDa), collagen types I (rat), II (chicken), III (human), and IV (mouse), elastin (bovine), deuterium oxide (D2O), acetic acid-d4, sodium acetate-d3, 3-(Trimethylsilyl)propionic-2,2,3,3-d6 (DSS-D6) acid sodium salt, and 2,2,2-trifluoroethanol (TFE) and were obtained from Sigma-Aldrich (St. Louis, MO). Streptavidin (Alexa Fluor 488 conjugate) and Geltrex were obtained from Thermo Fisher Scientific Inc. (Waltham, MA). Sodium hyaluronate (5 and 60 KDa) was purchased from Lifecore Biomedical LLC (Chaska, MN). In reference to terminology, N and C termini is used to describe the amino terminal (N) and the carboxyl terminal (C) of the peptide. The biotinylated peptides are used in every experiment.
# as §2
# elastin (bovine) = biological target: T2, elastin (bovine) (bovine, UniProt P04985 27-747, limits assumed); assay: plate assay: biotinylated peptide (5.0 mg/ml) on dried ECM coating, streptavidin-488 fluorescence
# T2 construct: Coated and dried on plates at 10 ug/cm2
# T2 sequence (looked up): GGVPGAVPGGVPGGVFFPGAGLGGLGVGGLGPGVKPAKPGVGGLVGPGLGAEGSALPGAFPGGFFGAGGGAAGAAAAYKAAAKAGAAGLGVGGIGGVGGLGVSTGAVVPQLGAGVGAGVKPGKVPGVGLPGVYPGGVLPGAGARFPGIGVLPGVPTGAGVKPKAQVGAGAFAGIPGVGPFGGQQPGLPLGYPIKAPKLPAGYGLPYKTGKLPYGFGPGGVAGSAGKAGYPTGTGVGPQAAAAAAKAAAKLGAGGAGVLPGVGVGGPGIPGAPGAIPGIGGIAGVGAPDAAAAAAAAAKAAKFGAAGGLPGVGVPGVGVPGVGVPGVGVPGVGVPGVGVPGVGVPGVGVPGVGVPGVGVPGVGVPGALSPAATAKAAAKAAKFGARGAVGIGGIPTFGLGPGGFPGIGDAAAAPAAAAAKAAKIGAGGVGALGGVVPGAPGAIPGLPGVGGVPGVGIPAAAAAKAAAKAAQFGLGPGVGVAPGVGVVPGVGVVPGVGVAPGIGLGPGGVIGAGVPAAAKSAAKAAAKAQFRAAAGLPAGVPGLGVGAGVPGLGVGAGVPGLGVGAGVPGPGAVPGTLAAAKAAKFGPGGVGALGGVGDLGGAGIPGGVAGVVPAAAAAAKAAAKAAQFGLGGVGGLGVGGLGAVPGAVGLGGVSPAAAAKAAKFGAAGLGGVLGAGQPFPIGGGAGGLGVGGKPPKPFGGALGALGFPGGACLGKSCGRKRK
# Description: Peptides were incubated 24 hours at 37° C. on collagens I-IV, elastin, hyaluronic acid, and Geltrex. Coatings (10 pig/cm²) were previously dried overnight in milli-Q water. Overall significance was assessed using analysis of variance, with Tukey's multiple comparison post-hoc analysis between ECM groups where n=4.
# N-termini biotinylated peptides were added to coated plates at 0, 1, 2.5, 5 and 10 mg/ml overnight at 37° C. in phosphate buffered saline (PBS), pH 7.4, after which the plates were washed three times with PBS. Fluorescent streptavidin-488 (4 μg/mL) was added to each well and incubated at 37° C. temperature for 24 hours, then thoroughly washed with PBS. The plates were read with a fluorescence microplate reader for fluorescence intensity (Ex 490 nm, Em 525 nm). All data were normalized to the background fluorescence intensity of Streptavidin-488.
molecule,measurement,setting,value
"LKTKIKIIVKTKSSAKLRSKLVNSHKI [Peptide 4, 8h-2 variant]",specificity of binding to ECMs,[1],lower specificity than 17x-3
same,Ellipticity ratio (222 nm/208 nm),[2],0.54
same,Ellipticity 208 nm,[2],−112
same,Ellipticity 222 nm,[2],−60.3
same,wavelength Minimum of CD profile,[2],225 nm
same,Ellipticity ratio (222 nm/208 nm),[2]; 20% TFE,0.97
same,Ellipticity 208 nm,[2]; 20% TFE,−364
same,Ellipticity 222 nm,[2]; 20% TFE,−353
same,wavelength Minimum of CD profile,[2]; 20% TFE,224 nm
same,binding to hyaluronic acid with increasing concentrations of peptide (fluorescence intensity),"[3]; 0-10 mg/ml peptide, PBS pH 7.4, 37° C., HA coating 10 μg/cm^2, FIG. 3",increases dramatically
same,"HA binding, overall assessment",[3]; summary and discussion statements,comparable binding; also recorded: HA specific and robust binders
same,"TEM characterization, Phosphate Buffered Saline (i)","[4]; PBS pH 7.4, 0.5% w/v, 30 minutes sonication, 24 hrs at 37° C.",fibers that contain two striations (fibrils)
same,"nanofiber formation in TEM, overall",[4]; both PBS and sodium cacodylate,consistent nanofibers; also recorded: predominantly form fibers with striations and furthermore form a mesh network
same,binding to hyaluronic acid in specificity testing,[5],predominantly
same,binding to elastin,elastin,moderately
B1,binding result,elastin (bovine),binds
B2,binding result,elastin (bovine),binds
B3,binding result,elastin (bovine),binds
